Assay results as given in patent US20110207628A1 (UNIVERSITY OF MIAMI, published 2011).

Biological target: T1, GST-tubby-F (GST fused to full-length mouse tubby) (Schistosoma japonicum; mouse, UniProt P50586 1-505)
T1 construct: mature; Expressed in E. coli BL21(DE3) from pGEX-2T; not shown: glutathione S-transferase of pGEX-2T (Schistosoma japonicum)
T1 sequence (looked up): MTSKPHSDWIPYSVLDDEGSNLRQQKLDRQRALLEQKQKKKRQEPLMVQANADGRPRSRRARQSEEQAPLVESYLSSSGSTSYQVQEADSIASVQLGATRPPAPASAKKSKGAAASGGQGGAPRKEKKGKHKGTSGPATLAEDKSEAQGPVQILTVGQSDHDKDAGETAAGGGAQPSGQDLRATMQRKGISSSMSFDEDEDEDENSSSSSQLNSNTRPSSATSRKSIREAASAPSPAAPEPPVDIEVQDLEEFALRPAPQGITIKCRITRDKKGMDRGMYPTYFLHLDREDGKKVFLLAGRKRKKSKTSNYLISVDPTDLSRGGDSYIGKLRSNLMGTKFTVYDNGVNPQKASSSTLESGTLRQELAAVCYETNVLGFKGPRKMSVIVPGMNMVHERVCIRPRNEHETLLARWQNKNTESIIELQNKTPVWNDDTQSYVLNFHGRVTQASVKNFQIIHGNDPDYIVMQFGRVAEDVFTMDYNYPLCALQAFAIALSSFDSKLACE
Test: GST pull-down: GST-tubby with lysate of cells expressing the FLAG-tagged protein, glutathione resin, Western blot with anti-FLAG mAb

B1: FLAG-tagged Tulp3 (full-length mouse Tulp3 with N-terminal FLAG tag) (other)
chain: DYKDDDDKMEAARCAPGPRGDSAFDDETLRLRQLKLDNQRALLEKKQRKKRLEPLMVQPNPEARLRRLKPRGSEEHTPLVDPQMPRSDVILHGIDGPAAFLKPEAQDLESKPQVLSVGSPAPEEGTEGSADGESPEETAPKPDLQEILQKHGILSSVNYDEEPDKEEDEGGNLSSPSARSEESAAASQKAASETGASGVTAQQGDAQLGEVENLEDFAYSPAPRGVTVKCKVTRDKKGMDRGLFPTYYMHLEREENRKIFLLAGRKRKKSKTSNYLVSTDPTDLSREGESYIGKLRSNLMGTKFTVYDHGVNPVKAQGLVEKAHTRQELAAICYETNVLGFKGPRKMSVIIPGMNMNHERIPFRPRNEHESLLSKWQNKSMENLIELHNKAPVWNDDTQSYVLNFHGRVTQASVKNFQIVHGNDPDYIVMQFGRVADDVFTLDYNYPLCALQAFAIGLSSFDSKLACE
notes: mature; Expressed from pcDNA3 in Neuro-2a cells; used as cell lysate or on membrane vesicles
- binding result: no binding
